The text below walks through data of US7135326B2, “UDP-glucosyltransferases” (E. I. du Pont de Nemours and Company, priority 2002, dated 2006).

For orientation: Ki means the equilibrium dissociation constant of an inhibitor or competing ligand from its target.

One series concerns Grape GT. Nature of the series: Substrate specificity of the purified recombinant Grape GT, HPLC analysis of glucose ester formation. It is filed as biochemical, Vitis sp. The conditions noted are these: relative to pHBA = 100, 10 mM test substrate, 0.0467 μM purified Grape GT, 15 min, 25° C. On the procedure:
To rule out the possibility that the Grape GT can also attach glucose to the hydroxyl group of pHBA, the products of the in vitro enzyme reaction were directly analyzed by reverse phase HPLC. […] Following a 1-min incubation period at 25° C., the reactions were terminated by the addition of an equal volume of 0.2 N HCl. […] The column was developed at 1 mL/min with a linear gradient of 10–50% Buffer B that was generated over a 20-min period, and absorbance was monitored at 254 nm. […] To test this hypothesis, Applicants' decided to examine the substrate specificity of the Grape GT in greater detail. […] Following a 15-min incubation period at 25° C., the reactions were quenched with an equal volume of 0.3 M HCl and the entire reaction mixture was analyzed by HPLC as described above in Example 6. The products of the various reactions were identified using authentic chemical standards. The retention times and extinction coefficients of these compounds were determined using the same column conditions. […] Regardless of substrate, the purified recombinant Grape GT only catalyzed the formation of glucose esters, which in all cases co-migrated precisely with the authentic compounds. […] Since the glucose ester of the latter compound is the precursor for the synthesis of simple and complex tannins that are extremely abundant in grapes, it is possible that gallic acid is a physiological substrate of the Grape GT. The data shown in Table 3 make it clear that although the Grape GT glucosylated mHBA (3-hydroxybenzoic […]) at a reasonable rate, product formation with oHBA (2-hydroxybenzoic acid) was not observed.

The next series has as its target CPL (Escherichia coli, UniProt P26602). Nature of the series: Product inhibition of CPL by pHBA. The class given is biochemical, E. coli. The conditions noted are these: read-out: inhibitory constant (Ki). Here is the method:
Although double transformant line 39 and the CPL control plant had essentially the same amount of CPL enzyme activity as measured in leaf extracts (Table 8), this doesn't necessarily reflect the situation in vivo. CPL enzyme assays are conducted under optimal conditions, and measure initial velocities in the presence of excess substrate and absence of products. Thus, the initial rate of product formation in the in vitro assay is strictly proportional to the amount of enzyme that is added to the cuvette. Consequently, if two plants had identical levels of CPL gene expression, leaf extracts prepared from these plants would theoretically yield the same initial velocity in the in vitro assay. […] Applicants confirmed these observations.

Series [1] concerns Arabidopsis thaliana glucosyltransferase UGT84A3 (GT 4, SEQ ID NO:12). The conditions noted are these: 20° C., pH 6; calculated from Vmax of Lim et al. 2001; cited from earlier work.
The nature of series [2]: Acid and base hydrolysis of pHBA glucose conjugates, HPLC. It is filed as physicochemical. The conditions noted are these: 48 h at 60° C. with NaOH or HCL, 0.19 mM. On the procedure: The initial concentration of both compounds was 0.19 mM and the total reaction volume was […]. Reactions were conducted in tightly sealed polypropylene tubes to prevent evaporative loss. […] Prior to HPLC analysis, the acid hydrolyzed samples were diluted with an equal volume of NaOH that contained a 0.2 mM excess of NaOH relative to the original concentration of HCL. The base hydrolyzed samples were analyzed directly. Chemically synthesized pHBA phenolic and ester glucoside standards and free pHBA were used to calibrate the HPLC runs for retention times, and extinction coefficients for all three compounds were accurately determined under the conditions employed. Peak areas were integrated using the software package provided with the Hewlett Packard Chemstation, and values obtained with known amounts of the chemical standards were used to quantitate compounds of interest in the acid and base hydrolyzed samples.

Series [3] deals with Arabidopsis thaliana glucosyltransferase UGT84A2. To be noted: 20° C., pH 6; calculated from Vmax of Lim et al. 2001; cited from earlier work.
Series [4] is described as follows: Reverse phase HPLC analysis of the products of the in vitro enzyme reaction with pHBA. It is filed as biochemical. Here is the method:
To rule out the possibility that the Grape GT can also attach glucose to the hydroxyl group of pHBA, the products of the in vitro enzyme reaction were directly analyzed by reverse phase HPLC. […] Following a 1-min incubation period at 25° C., the reactions were terminated by the addition of an equal volume of 0.2 N HCl. The samples were briefly centrifuged, and 20-μL aliquots of the resulting supernatants were injected onto a Vydac 218TP54 Protein and Peptide C18 column, (Grace Vydac, Hesperia, Calif.) pre-equilibrated with 90% Buffer A (0.1% formic acid in water) and 10% Buffer B (methanol). The column was developed at 1 mL/min with a linear gradient of 10–50% Buffer B that was generated over a 20-min period, and absorbance was monitored at 254 nm.
In light of these observations, it was extremely important to analyze the reaction products of the Grape GT over a broader range of pH that encompasses physiological conditions. […] In addition, the reaction mixtures also contained 100 mM potassium phosphate buffer (pH 6.0, 7.0 or 8.0), 5 mM MgCl2, 5 mM UDP-glucose, 2 mM dithiothreitol, and 0.47 μM of the purified recombinant Grape GT. After a 15-min incubation period, the reactions were terminated by the addition of an equal volume of 0.3 M HCl and analyzed by reverse phase HPLC as described above. […]

The nature of series [5]: Continuous spectrophotometric UDP-glucosyltransferase assay, formation of glucose ester of sinapic acid at 368 nm, E. coli cell-free extracts. The conditions noted are these: crude extract, 10 mM UDP-glucose, pH 7.3, 25° C. It is filed as biochemical. On the procedure: (§1) For protein production, the resulting recombinant strains were grown at 22° C. in 50 mL of LB media that contained kanamycin (50 μg/mL). At an A600 nm of ˜0.6, isopropyl-1-thio-β-D-galactopyranoside was added to a final concentration of 0.2 mM. Following a 22-h induction period at the same temperature, the cells were harvested by centrifugation and stored at −80° C. for subsequent manipulation as described below.
(§2) The frozen cell pellets were resuspended in 1.0 mL of a solution containing 100 mM Tris-HCl (pH 7.7), 5 mM MgSO4, 1 mM dithiothreitol, 0.03 mg/mL DNAse I, 0.5 mM phenylmethanesulfonyl fluoride, and passed once through a French pressure cell at 20,000 psi. Debris was removed by centrifugation (43,000×g, 60 min), and the resulting cell-free extracts, containing ˜15 mg of protein per mL, were supplemented with 5% glycerol and stored at −80° C. for subsequent measurements of enzyme activities. Protein concentrations were determined by the Bradford Method using bovine serum albumin as a standard.
(§3) The second assay is based on the increase in absorbance at 368 nm that accompanies the formation of the glucose ester of sinapic acid. The experimental conditions were the same as those described above, but the test substrate was sinapic acid and product formation was calculated using an extinction coefficient of 5,570 M^−1 that was obtained with the authentic chemically synthesized compound under identical conditions.

A short description of series [6]: Continuous spectrophotometric UDP-glucosyltransferase assay, formation of pHBA glucose ester at 304 nm, E. coli cell-free extracts. The class given is biochemical. To be noted: crude extract, 10 mM UDP-glucose, pH 7.3, 25° C. Here is the method: as §1, §2
The nature of series [7]: Freeze/thaw stability of the purified recombinant Grape GT. The class given is physicochemical. The conditions noted are these: diluted in buffer with 6% glycerol and 5 mM dithiothreitol, kept on ice, frozen to −80° C. Here is the method: For all the enzyme assays described below, frozen aliquots of the purified Grape GT were rapidly thawed and diluted to the desired concentration with ice-cold buffer containing 50 mM Tris-HCl (pH 7.6), 1 mM EDTA, 10 mM Na2SO3, 300 mM NaCl, 6% glycerol and 5 mM dithiothreitol.

Series [8] can be described thus: Ratio of enzyme activity with pHBA versus sinapic acid (spectrophotometric assays). To be noted: for pHBA/SA ratio of enzyme activity: crude extract. It is filed as biochemical. Here is the method: as §3

Sequence of CPL (P26602 whole entry): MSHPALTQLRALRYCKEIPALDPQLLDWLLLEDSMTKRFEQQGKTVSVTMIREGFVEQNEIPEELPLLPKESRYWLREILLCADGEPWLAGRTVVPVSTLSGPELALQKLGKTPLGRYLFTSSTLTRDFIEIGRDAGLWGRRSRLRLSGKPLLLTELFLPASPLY

As to `O=C(O)c1ccc(O)cc1` [PHBA, p-Hydroxybenzoic acid], the “Relative Rate of product formation” value with Grape GT amounted to 100. The inhibition constant Ki at CPL was approximately 2000 nM.

Regarding `O=C(O)/C=C/c1ccccc1` [cinnamic acid], the “turnover number with cinnamic acid” value in [1] is approximately 0.9 s⁻¹.

On to `O=C(O[C@@H]1O[C@H](CO)[C@@H](O)[C@H](O)[C@H]1O)c1ccc(O)cc1` [pHBA glucose ester], for which the “susceptibility to acid and base hydrolysis” value in series [2] was “far more susceptible to acid and base hydrolysis than the pHBA phenolic glucoside”.

In the case of `COc1cc(/C=C/C(=O)O)cc(OC)c1O` [sinapic acid, Sinapic acid], the “turnover number with sinapic acid” value in series [3] was approximately 0.72 s⁻¹.

B1: Grape GT: Vitis sp. UDP-glucosyltransferase, SEQ ID NO:18, recombinant from E. coli (protein)
chain: MGSESKLVHVFLVSFPGQGHVNPLLRLGKRLASKGLLVTFSTPESIGKQMRKASNITDQPTPVGEGLIRFEFFEDEWDENEPKRQDLDLYLPQLELVGKKVLPQMIKKHAEQDRPVSCLINNPFIPWVSDVAADLGIPSAMLWVQSCACFSTYYHYYHGLVPFPSEAEPEIDVQLPCMPLLKYDEVASFLYPTTPYPFLRRAILGQYRNLDKPFCILMDTFQELEPEVIEYMSKICPIKPVGPLYKNPKVPNAAVRGDFMKADDCIEWLDSKPPSSIVYVSFGSVVYLKQDQVDEIAYGLLNSGLQFLWVMKPPHKDAGLELLVLPEGFLEKAGDKGKVVQWSPQEQVLAHPSVACFVTHCGWNSSMEALSSGMPVVAFPQWGDQVTDAKYLVDEFKIGVRMCRGEAENKLITRDEVEKCLIEATTGPKAAELKQNAMKWKKAAEQAVAEGGSSERNLQGFVDEVRRRSIEIIYKTKI
modifications: Vitis ssp.
For the molecule B1, the “glucose conjugates detected by HPLC” value in series [4] (pH 6.0, 7.0 or 8.0, 0.15 mM or 5 mM pHBA, 0.47 μM purified Grape GT, 15 min) was “the only glucose conjugate that was detected in the in vitro assay was the pHBA glucose ester”. Besides, in series [4] (purified enzyme, pH 7.3, 0.3 mM pHBA, 5 mM UDP-glucose, 25° C. (Example 6)), the “glucosylated products detected by HPLC” value is given as “the only glucosylated product that was detected in the fractionated enzyme reaction mixture was the pHBA glucose ester”. Further, in [5] (1 mM sinapic acid), the “initial rate of product formation, 1 mM SA” value is given as 22.8 μM per min. Besides, the “initial rate of product formation, 5 mM SA” value in [5] (5 mM sinapic acid) is 16.6 μM per min. The “initial rate of product formation, 10 mM SA” value in series [5] (10 mM sinapic acid) came out at 4.8 μM per min. Moreover, the “initial rate of product formation, 1 mM pHBA” value in series [6] (1 mM pHBA) came to 96.4 μM per min. The “initial rate of product formation, 5 mM pHBA” value in series [6] (5 mM pHBA) stood at 177 μM per min. The “initial rate of product formation, 10 mM pHBA” value in series [6] (10 mM pHBA) is 181 μM per min. In addition, the stability to freeze/thaw result in series [7] was “stable to multiple cycles of freeze/thaw without significant loss of enzyme activity”. In addition, in [8] (10 mM substrate concentration), the “substrate preference for pHBA over sinapic acid” value was 37.7 fold. Also, the “rate of pHBA glucosylation relative to sinapic acid” value in [8] (10 mM substrate, cell-free extract) is given as approximately 40 times. In series [8] (Table 4, cell-free extracts, 10 mM pHBA or sinapic acid, 25° C.), the “Ratio of Activity pHBA/SA” value is 37.7. Also, the “pHBA/SA ratio of enzyme activity” value is reported as 4.23 in series [8] (1 mM substrate), 10.7 in series [8] (5 mM substrate) and 37.7 in series [8] (10 mM substrate).
